Experimental data reported in the RNAGym collection of RNA variant scans (doi:10.1073/pnas.2313332121).
Variants at the floor of the assay were thinned out.

B1: TPR 5TU (parent)
chain: GGAUCUUCUCGAUCUAACAAAAAAGACAAAUCUGCCACAAAGCUUGAGAGCAUCUUCGGAUGCAGAGGCGGCAGCCUUCGGUGGCGCGAUAGCGCCAACGUUCUCAACUAUGACACGCAAAACGCGUGCUCCGUUGAAUGGAGUUUAUCAUG

Variants of: B1
Experiment: polymerase ribozyme fitness, log enrichment relative to wild type (log ratio); higher = more active; in vitro selection for triplet polymerase activity
Outline: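 To select mutant libraries of each subunit of a heterodimeric triplet polymerase ribozyme, built by PCR and transcribed, each was annealed with a biotinylated primer, partner subunit and triplets, then incubated frozen at −7 °C. Extended constructs were gel-excised, captured on streptavidin beads and amplified by RT-PCR, in one round carried out in triplicate. Illumina sequencing of input and output libraries kept genotypes with ≥10 input reads and ≥1 read per output. Fitness is the base-2 logarithm of genotype enrichment relative to wild-type enrichment, from inverse-variance-weighted replicate averages.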

Q: For G46A G94C, which “polymerase ribozyme fitness (log ratio)” value is on record?
A: -1.05

Q: With G48A C54U G86C A106C as the variant, how does the “polymerase ribozyme fitness (log ratio)” value read?
A: ≤ -4.2

Q: For G46C A47C G48A U82C, which “polymerase ribozyme fitness (log ratio)” value is on record?
A: ≤ -4.2

Q: Which “polymerase ribozyme fitness (log ratio)” value does the source give for G48A C54U G84A G92U C99G U109G G133C here?
A: ≤ -4.2

Q: With G48C G59C U82G as the variant, how does the “polymerase ribozyme fitness (log ratio)” value read?
A: 0.0275

Q: With A47U G94A as the variant, how does the “polymerase ribozyme fitness (log ratio)” value read?
A: -0.308

Q: For A49C G50C C85A C103U A106G G117U A122U C131U U139G, which “polymerase ribozyme fitness (log ratio)” value is on record?
A: ≤ -4.2

Q: For A47U A52G U53G U56A U145G, which “polymerase ribozyme fitness (log ratio)” value is on record?
A: -3.64

Q: Which “polymerase ribozyme fitness (log ratio)” value does the source give for U45G A47U U56A G67C A89U C96A A97G A138C here?
A: ≤ -4.2

Q: Which “polymerase ribozyme fitness (log ratio)” value does the source give for G46C C87A G94C U101A U134A G141U here?
A: ≤ -4.2

Q: With A49C A52G U78C C93G U146C as the variant, how does the “polymerase ribozyme fitness (log ratio)” value read?
A: ≤ -4.2

Q: Which “polymerase ribozyme fitness (log ratio)” value does the source give for A47C G88U here?
A: -3.96

Q: For A47C A60C C72G U77G C87G G88U A110U A119G A147C, which “polymerase ribozyme fitness (log ratio)” value is on record?
A: ≤ -4.2

Q: With G48A A113C U134C A137C G140A U148G as the variant, how does the “polymerase ribozyme fitness (log ratio)” value read?
A: ≤ -4.2

Q: Which “polymerase ribozyme fitness (log ratio)” value does the source give for A47C G81C C87G C96U here?
A: ≤ -4.2

Q: With U45C C57A G74C G80U U101A U139A G143C as the variant, how does the “polymerase ribozyme fitness (log ratio)” value read?
A: ≤ -4.2

Q: With A49C C54A as the variant, how does the “polymerase ribozyme fitness (log ratio)” value read?
A: ≤ -4.2

Q: Which “polymerase ribozyme fitness (log ratio)” value does the source give for A47C C85A C93U here?
A: ≤ -4.2

Q: Which “polymerase ribozyme fitness (log ratio)” value does the source give for A47C U56A C85U here?
A: -0.721

Q: For U45G G46A A64U G71U G81A A89G A142G, which “polymerase ribozyme fitness (log ratio)” value is on record?
A: ≤ -4.2

Q: With A47G U102A as the variant, how does the “polymerase ribozyme fitness (log ratio)” value read?
A: -0.825

Q: Which “polymerase ribozyme fitness (log ratio)” value does the source give for G46C C54A C96G C103G G141U here?
A: ≤ -4.2

Q: For A47C C72U G94U U102C, which “polymerase ribozyme fitness (log ratio)” value is on record?
A: ≤ -4.2

Q: For G46A G70U C85G U130A, which “polymerase ribozyme fitness (log ratio)” value is on record?
A: ≤ -4.2

Q: With G48A C85U C96A C116G as the variant, how does the “polymerase ribozyme fitness (log ratio)” value read?
A: -2.37

Q: With A49C A52C G68U G84A G140A as the variant, how does the “polymerase ribozyme fitness (log ratio)” value read?
A: ≤ -4.2

Q: Which “polymerase ribozyme fitness (log ratio)” value does the source give for G46C U55A here?
A: -0.931

Q: For A49C A52U C132G, which “polymerase ribozyme fitness (log ratio)” value is on record?
A: ≤ -4.2

Q: With A47G C87G C103U A110G as the variant, how does the “polymerase ribozyme fitness (log ratio)” value read?
A: ≤ -4.2

Q: Which “polymerase ribozyme fitness (log ratio)” value does the source give for U45G G70A G92U G94A C116G G152U here?
A: ≤ -4.2

Q: For G48C G58C C99G, which “polymerase ribozyme fitness (log ratio)” value is on record?
A: ≤ -4.2

Q: Which “polymerase ribozyme fitness (log ratio)” value does the source give for G46U G50C A73G C76G A113U U139C here?
A: ≤ -4.2

Q: With A47C U56G C85G C118U A121U U144G as the variant, how does the “polymerase ribozyme fitness (log ratio)” value read?
A: -1.81

Q: With U45A C118U A120C as the variant, how does the “polymerase ribozyme fitness (log ratio)” value read?
A: -2.58

Q: For G46C C75U C93G U144A, which “polymerase ribozyme fitness (log ratio)” value is on record?
A: ≤ -4.2

Q: With A47C C79G as the variant, how does the “polymerase ribozyme fitness (log ratio)” value read?
A: ≤ -4.2

Q: Which “polymerase ribozyme fitness (log ratio)” value does the source give for G46U C87U here?
A: -0.944

Q: Which “polymerase ribozyme fitness (log ratio)” value does the source give for A47U C93U C96U G152A here?
A: -3.95

Q: Which “polymerase ribozyme fitness (log ratio)” value does the source give for G48U A49U A98G C116G G133U here?
A: ≤ -4.2

Q: For G48C G84A G143A, which “polymerase ribozyme fitness (log ratio)” value is on record?
A: -2.38

Q: Which “polymerase ribozyme fitness (log ratio)” value does the source give for G48C A52G here?
A: -1.29

Q: For A49C A52G C93U A119U, which “polymerase ribozyme fitness (log ratio)” value is on record?
A: ≤ -4.2

Q: Which “polymerase ribozyme fitness (log ratio)” value does the source give for G48U C118A here?
A: -0.303

Q: Which “polymerase ribozyme fitness (log ratio)” value does the source give for U45G here?
A: -0.42

Q: For U45C, which “polymerase ribozyme fitness (log ratio)” value is on record?
A: 0.188

Q: For A47G G59C G62U G83A C87U U101G A138U, which “polymerase ribozyme fitness (log ratio)” value is on record?
A: ≤ -4.2

Q: For A49C G50U U53G G81C C87U A89C A106U A150C, which “polymerase ribozyme fitness (log ratio)” value is on record?
A: ≤ -4.2

Q: With G46C G48A C76G U78G G83A G143C as the variant, how does the “polymerase ribozyme fitness (log ratio)” value read?
A: -4.2

Q: For A49C A60G, which “polymerase ribozyme fitness (log ratio)” value is on record?
A: -3.61

Q: Which “polymerase ribozyme fitness (log ratio)” value does the source give for A49C G50U A64C A73U C87A A115G C118G here?
A: ≤ -4.2

Q: For G48A A52C C105U C108U A137C, which “polymerase ribozyme fitness (log ratio)” value is on record?
A: ≤ -4.2

Q: With A49C C96A U102G G141U as the variant, how does the “polymerase ribozyme fitness (log ratio)” value read?
A: 0.794

Q: With G48A C85U as the variant, how does the “polymerase ribozyme fitness (log ratio)” value read?
A: -2.1

Q: Which “polymerase ribozyme fitness (log ratio)” value does the source give for G48A C85A here?
A: -2.56

Q: Which “polymerase ribozyme fitness (log ratio)” value does the source give for U45A U56A G65C A91U G92A U130C A147U here?
A: ≤ -4.2

Q: With U45G G92C as the variant, how does the “polymerase ribozyme fitness (log ratio)” value read?
A: -2.2

Q: Which “polymerase ribozyme fitness (log ratio)” value does the source give for A49C C103A U139A here?
A: ≤ -4.2

Q: With G46U G83C G92U as the variant, how does the “polymerase ribozyme fitness (log ratio)” value read?
A: -2.34

Q: For G48C C87A U130G, which “polymerase ribozyme fitness (log ratio)” value is on record?
A: ≤ -4.2

Q: Which “polymerase ribozyme fitness (log ratio)” value does the source give for G46A A47G C72A C108U U144A here?
A: ≤ -4.2

Q: Which “polymerase ribozyme fitness (log ratio)” value does the source give for G48A U53C G92C C95U A98C here?
A: -1.65

Q: Which “polymerase ribozyme fitness (log ratio)” value does the source give for A47C U55A here?
A: 0.201

Q: Which “polymerase ribozyme fitness (log ratio)” value does the source give for A47C U77A C79A A89U here?
A: ≤ -4.2

Q: Which “polymerase ribozyme fitness (log ratio)” value does the source give for A47G U82A A89C C93U here?
A: -1.39

Q: With U45A U56C C57A C63G C87G G88C as the variant, how does the “polymerase ribozyme fitness (log ratio)” value read?
A: ≤ -4.2

Q: For A47U G58U G84A C93G U148A, which “polymerase ribozyme fitness (log ratio)” value is on record?
A: ≤ -4.2

Q: With G46C A47C C72U C103A as the variant, how does the “polymerase ribozyme fitness (log ratio)” value read?
A: ≤ -4.2

Q: With G48C A49C as the variant, how does the “polymerase ribozyme fitness (log ratio)” value read?
A: -3.92

Q: With G48A A97G as the variant, how does the “polymerase ribozyme fitness (log ratio)” value read?
A: -0.198

Q: With G48U U55G as the variant, how does the “polymerase ribozyme fitness (log ratio)” value read?
A: -0.894

Q: With A47G A73U as the variant, how does the “polymerase ribozyme fitness (log ratio)” value read?
A: -1.81

Q: Which “polymerase ribozyme fitness (log ratio)” value does the source give for A49C C87U U151G here?
A: ≤ -4.2

Q: With A47G G81C as the variant, how does the “polymerase ribozyme fitness (log ratio)” value read?
A: 0.162

Q: Which “polymerase ribozyme fitness (log ratio)” value does the source give for G48A C54G C57U G81A C95U A115U C131A U146G G152U here?
A: ≤ -4.2

Q: Which “polymerase ribozyme fitness (log ratio)” value does the source give for G46A G71C U78A here?
A: ≤ -4.2

Q: For G48U C85U G117U A122U, which “polymerase ribozyme fitness (log ratio)” value is on record?
A: 0.609

Q: With G46A G92A as the variant, how does the “polymerase ribozyme fitness (log ratio)” value read?
A: -2.92

Q: For A47C G59A C85G, which “polymerase ribozyme fitness (log ratio)” value is on record?
A: -2.62

Q: Which “polymerase ribozyme fitness (log ratio)” value does the source give for A47C C108U U146C here?
A: -3.2

Q: With U45A G81C C96G as the variant, how does the “polymerase ribozyme fitness (log ratio)” value read?
A: -3.93

Q: Which “polymerase ribozyme fitness (log ratio)” value does the source give for A47C G58C A97G C99G C129A G133U here?
A: ≤ -4.2

Q: With U45A U53C C57U C85A C96A C123U C125A A142C as the variant, how does the “polymerase ribozyme fitness (log ratio)” value read?
A: ≤ -4.2

Q: For A47G G94U A147G, which “polymerase ribozyme fitness (log ratio)” value is on record?
A: ≤ -4.2

Q: With U45A G74A C105U as the variant, how does the “polymerase ribozyme fitness (log ratio)” value read?
A: ≤ -4.2
